Measurements as given in publication PMC11143692.

Target: Flag-eIF4E tagged with homotetrameric tag 6 (HOTag6), the eIF4E part of TORSEL (UniProt P06730)
UniProt P06730, sequence (P06730 whole entry): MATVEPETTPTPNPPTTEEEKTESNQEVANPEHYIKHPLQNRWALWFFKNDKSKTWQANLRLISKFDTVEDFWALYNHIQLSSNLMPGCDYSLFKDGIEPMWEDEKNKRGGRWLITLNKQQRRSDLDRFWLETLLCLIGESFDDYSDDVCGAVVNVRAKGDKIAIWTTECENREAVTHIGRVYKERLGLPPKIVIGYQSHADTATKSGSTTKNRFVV

TORSEL fluorescent puncta in living U2OS cells when mTORC1 is suppressed by serum deprivation, EAA starvation or rapamycin; diffuse under normal culture conditions; 50-90% of cells with visible puncta: 50 to 90 % of cells
Substance: HA-tagged 4EBP1 tagged with mCherry and homohexameric tag 3 (HOTag3), the 4EBP1 part of TORSEL (from UniProt Q13541 1-118) (natural protein)
